The values that follow come from publication PMC2817469.

Series [1] addresses T1, Dna2 E675A (nuclease-defective) (UniProt P38859 1-1522, E675A). Put plainly: EMSA.
For series [2], the target named is T1, Dna2 E675A (nuclease-defective). As to the kind of experiment: DNase I footprinting.
For series [3] the target is unchanged. Put plainly: competition.
Series [4] has the same target. Put plainly: competition. This is another data set of the same source.

T1 sequence (P38859 whole entry E675A): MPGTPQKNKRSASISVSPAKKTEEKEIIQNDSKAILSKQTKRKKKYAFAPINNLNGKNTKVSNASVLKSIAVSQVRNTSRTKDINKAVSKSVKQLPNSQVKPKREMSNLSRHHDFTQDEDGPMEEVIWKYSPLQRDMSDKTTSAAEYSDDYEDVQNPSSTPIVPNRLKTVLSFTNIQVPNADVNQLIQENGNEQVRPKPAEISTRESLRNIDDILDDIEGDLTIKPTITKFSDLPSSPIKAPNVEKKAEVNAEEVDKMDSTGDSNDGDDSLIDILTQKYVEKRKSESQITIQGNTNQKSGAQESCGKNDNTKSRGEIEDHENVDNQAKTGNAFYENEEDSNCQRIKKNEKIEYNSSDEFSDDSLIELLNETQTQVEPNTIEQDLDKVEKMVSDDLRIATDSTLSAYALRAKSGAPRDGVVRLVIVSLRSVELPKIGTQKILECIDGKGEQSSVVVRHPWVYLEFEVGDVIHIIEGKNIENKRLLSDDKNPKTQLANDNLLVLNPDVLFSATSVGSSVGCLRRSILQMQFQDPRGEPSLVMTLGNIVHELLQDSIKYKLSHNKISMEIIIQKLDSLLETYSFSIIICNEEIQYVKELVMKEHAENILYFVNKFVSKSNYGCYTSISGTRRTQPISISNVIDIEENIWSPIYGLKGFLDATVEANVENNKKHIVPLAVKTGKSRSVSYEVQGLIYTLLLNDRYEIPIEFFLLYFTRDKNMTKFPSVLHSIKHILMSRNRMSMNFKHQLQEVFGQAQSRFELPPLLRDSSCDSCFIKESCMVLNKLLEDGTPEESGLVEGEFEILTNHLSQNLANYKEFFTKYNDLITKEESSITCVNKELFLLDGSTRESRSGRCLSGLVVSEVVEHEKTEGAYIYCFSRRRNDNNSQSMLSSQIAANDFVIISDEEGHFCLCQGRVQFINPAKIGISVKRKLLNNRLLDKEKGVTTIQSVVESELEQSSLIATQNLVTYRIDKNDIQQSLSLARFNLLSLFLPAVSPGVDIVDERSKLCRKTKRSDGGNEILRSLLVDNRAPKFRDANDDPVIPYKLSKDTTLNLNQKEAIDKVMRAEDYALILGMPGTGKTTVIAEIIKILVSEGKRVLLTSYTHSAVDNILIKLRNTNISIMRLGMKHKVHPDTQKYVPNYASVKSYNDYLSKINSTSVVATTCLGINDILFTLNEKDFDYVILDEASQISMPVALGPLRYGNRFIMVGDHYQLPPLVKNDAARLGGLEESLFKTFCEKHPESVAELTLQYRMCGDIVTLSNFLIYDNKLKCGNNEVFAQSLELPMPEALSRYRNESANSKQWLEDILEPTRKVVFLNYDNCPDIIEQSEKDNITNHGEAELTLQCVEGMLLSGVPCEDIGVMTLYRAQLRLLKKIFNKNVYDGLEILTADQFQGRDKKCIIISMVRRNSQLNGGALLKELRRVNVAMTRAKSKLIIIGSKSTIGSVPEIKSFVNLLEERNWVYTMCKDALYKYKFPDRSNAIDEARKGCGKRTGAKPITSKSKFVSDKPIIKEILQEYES

B1: Gap (20-nt) (structured_DNA)
DNA: ACATGATGCATCGTTAGGCGATTCCGCCTAACGATGCATCATGTTTTTTTTTTTTTTTTTTTTTCGCGAACCCTATTTAGGGTTCGCG
As usually defined, the Kd is the equilibrium constant for the complex coming apart. High values mean weaker binding, low ones tighter binding. As to B1, the Kd in series [1] was 6.7 nM.

B2: 5'-Tail (structured_DNA)
DNA: TTCACGAGATTTACTTATTTCACTGCGGCTACATGATGCATCGTTAGGCGATTCCGCCTAACGATGCATCATGT
The molecule B2 registered a Kd in series [1] of 8.5 nM.

B3: Nick (structured_DNA)
DNA: ACATGATGCATCGTTAGGCGATTCCGCCTAACGATGCATCATGTCGCGAACCCTATTTAGGGTTCGCG
For B3, the binding result in series [2] is given as “binds”.

B4: ssDNA 30-nt (ssDNA)
DNA: TTCACGAGATTTACTTATTTCACTGCGGCT
As for B4, the binding result in series [3] is listed as “binds”.

B5: Double-Flap (structured_DNA)
DNA: TTCACGAGATTTACTTATTTCACTGCGGCTACATGATGCATCGTTAGGCGATTCCGCCTAACGATGCATCATGTCGCGAACCCTATTTAGGGTTCGCGT
The molecule B5 had a Kd in series [1] of 7 nM.

B6: Flap (30-nt 5'-flap) (structured_DNA)
DNA: TTCACGAGATTTACTTATTTCACTGCGGCTACATGATGCATCGTTAGGCGATTCCGCCTAACGATGCATCATGTCGCGAACCCTATTTAGGGTTCGCG
Molecule B6 displayed a Kd in series [1] of 8.4 nM.

B7: Biotin-Flap, streptavidin-blocked (structured_DNA)
DNA: B6 DNA
modifications: 5' biotin
For the molecule B7, the binding result in series [4] is given as “binds”.

B8: Fork (structured_DNA)
DNA: TTCACGAGATTTACTTATTTCACTGCGGCTACATGATGCATCGTTAGGCGATTCCGCCTAACGATGCATCATGTTGTTACCCTTTGA
For B8, the affinity in series [1], expressed as Kd, was 9.2 nM.
